Where a chain is given by its changes, count along the chain named.
B1: CA178 (antibody, V domains shown)
VH: QVQLVQSGAEVKKPGSSVKVSCKASGGTFSSYAISWVRQAPGQGLEWMGGIIPIFGTANYAQKFQGRVTITADESTSTAYMELSSLRSEDTAVYYCARDYGGSYYYEYFQHWGQGTLVTVSS
VL: not shown
B2: CA169 (antibody, V domains shown)
VH: EVQLVESGGGLVKPGGSLRLSCAASGFTFSSYSMNWVRQAPGKGLEWVSSISSSSSYIYYADSVKGRFTISRDNAKNSLYLQMNSLRAEDTAVYYCASGVLLEAFDYWGQGTLVTVSS
VL: SYVLTQPPSVSVAPGQTARITCGGNNIGSKSVHWYQQKPGQAPVLVVYDDSDRPSGIPERFSGSNSGNTATLTISRVEAGDEADYYCQVWDSSSDHVVFGGGTKLTVL
B3: CA162 (antibody, V domains shown)
VH: QVQLVESGGGLVKPGGSLRLSCAASGFTFSDYYMSWIRQAPGKGLEWVSYISSSSSYTNYADSVKGRFTISRDNAKNSLYLQMNSLRAEDTAVYYCARGRTMFKNYYDSSGYYGYFDYWGQGTLVTVSS
VL: DIQMTQSPSSVSASVGDRVTITCRASQGISSWLAWYQQKPGKAPKLLIYAASSLQSGVPSRFSGSGSGTDFTLTISSLQPEDFATYYCQQANSPLTFGGGTKVEIK
B4: CA171 (antibody, V domains shown)
VH: EVQLVESGGGLVQPGGSLRLSCAASGFTFSSYSMNWVRQAPGKGLEWVSYISSSSSTIYYADSVKGRFTISRDNAKNSLYLQMNSLRAEDTAVYYCARTFYSNYLDAFDIWGQGTMVTVSS
VL: EIVLTQSPDTLSMCPGERATLSCRASQSVSSYLAWYQQKPGQAPRLLIYDASNRATGIPARFSGSGSGTDFTLTISSLEPEDFAVYYCQQRSNWLSMYTFGQGTKLEIK
B5: CA163 (antibody, V domains shown)
VH: QVQLVQSGAGASVKVSCKASGNTFTSYGISWVRQAPGQGLEWMGWIIPYNGNTNYAQKFQGRVTMTTDTSTSTAYMELRSLRSDDTAVYYCARDGEVGAFDNYYYYCGYGVIVTTAS
VL: not shown
B6: CA175 (antibody, V domains shown)
VH: EVQLVESGGGLVQPGGSLRLSCAASGFTFSTYPMNWVRQAPGKGLEWVSYISSSSSTIYYADCVKGRFTISRDNAKNSLYLQMNSLRDEDTAVYYCARYYIAYGMDVWGQGTTVTVSS
VL: DIQMTQSPSSMSASVGDRVTITCRASQGISNYLAWFQQKPGKAPKRLIYGASSLHRGVPSRFSGSGSGTEFTLTITSLQPEDFATYYCLQHNTYPRTFGQGTKVEIK
B7: CA168 (antibody, V domains shown)
VH: QVQLVQSGAEVKKPGSSVKVSCKASGGTFSSYAISWVRQAPGQGLEWMGGIIPIFGTANYAQKFQGRVTITADKSTSTAYMELSSLRSEDTAVYYCARALTYYDFPDYGMDVWGQGTTVTVSS
VL: QSALTQPPSASGSPGQSVTISCTGTSSDVGGYNYVSWYQQHPGKVPKLMIYEVTKRPSGVPDRFSGSKSGNTASLTVSGLQAEDEADYYCSSYAGSNNLVFGGGTKLTVL
B8: CA176 (antibody, V domains shown)
VH: QVQLVESGGGVVQPGRSLRLSCAASGFTFSSYGMHWVRQAPGKGLEWVAVISYDGSNKYYADSVKGRFTISRDNSKNTLYLQMNSLRAEDTAVYYCAKDEGSSDFWSGYYASFDYWGQGTLVTVSS
VL: DIQMTQSPISLSASVGDRVTITCRASQDISNYLTWYQQKPGKAPKLLIYAASSLQSGVPSRFSGSGSGTDFTLTISNLQPEDFATYYCQQNYSYPCTFGQGTKVEIK
B9: CA177 (antibody, V domains shown)
VH: RCSCRSRAPGLVKPSETLSLTCTVSGGSISSYYWSWIRQPPGKGLEWIGYIYYSGSTNYNPSLKSRVTISVDTSKNQFSLKLSSVTAADTAVYYCASHDYTDHAAGYWGQGTLVTVSS
VL: not shown
B10: CA173 (antibody, V domains shown)
VH: EVQLVESGGGLVKPGGSLRLSCAASGFTFSSYSMNWVRQAPGEGLEWVSSISSSSTYIYYADSVKGRFTISRDNAKNSLYLQMNSLRAEDTAVYYCARDRPAGSSSLGSGYFDLWGRGTLVTVSS
VL: not shown
B11: CA166 (antibody, V domains shown)
VH: EVQLVESGGGLVKPGGSLRLSCAASGFTFSSYSMNWVRQAPGKGLEWVSSISSSSSYIYYADSVKGRFTISRDNAKNSLYLQMNSLRAEDTAVYYCARVMITFGGADYWGQGTLVTVSS
VL: DIQMTQSPSSLSASVGDRVTITCRASQNINTYLNWYQKRPGIAPKLLIYGASSLQSGVPSRFSGSGSGTDFTLTISSLQPEDFATYYCQQYHTSPLTFGGGTPVDIK
B12: CA170 (antibody, V domains shown)
VH: B11 VH with V99D, M100R, I101D, T102L, F103L, G104D, G105A, A106F, Y108I, L114M
VL: SYVLTQPPSVSVAPGQTARITCGGNNIGSKSVHWYQQKPGQAPVLVVYDDSDRPSGIPERFSGSNSGNTATLTISRVEAGDEADYYCQVWDSSSDHPWVFGGGTKLTVL
B13: CA180 (antibody, V domains shown)
VH: QVQLVQSGAEVKKPGASVKVSCKASGYTFTSYGISWVRQAPGQGLEWMGWISAYNGNTNYAQKLQGRVTMTTDTSTSTAYMELRSLRSDDTAVYYCARDLGYSSSWYTSNWFDPWGQGTLVTVSS
VL: QSALTQPASVSGSPGQSITISCTGTSSDVGSYNLVSWYQQHPGKAPKLMIYEGSKRPSGVSNRFSGSKSGNTASLTISGLQAEDEADYYCCSYAGSSTVVFGGGTKLTVL
B14: CA172 (antibody, V domains shown)
VH: QVQLVESGGGLVKPGGSLRLSCAASGFTFSDYYMSWIRQAPGKGLEWVSYISSSSSYTNYADSVKGRFTISRDNAKNSLYLQMNSLRAEDTAVYYCARALRYFDWYDYWGQGTLVTVSS
VL: EIVLTQSPDFQSVTPKGKVTITCRASQSIGSSLHWYQQKPDQSPKLLIKYASQSFSGVPSRFSGSGSGTEFTLTISSLQPEDFATYYCQQLNSYSPITFGQGTRLEIK

Each binder was assayed against soluble HLA-E-VL9, HLA-E*01:03 heavy chain refolded with β2-microglobulin and synthetic VL9 peptide (Homo sapiens, HLA-E*01:03, strain).

Binding result, binds:
B1, B2, B3, B4, B5, B6, B7, B8, B9, B10, B11, B12, B13, B14

— paper PMC8960791 (Communications Biology, 2022)
